Results on four molecules are retold here after patent US20220119490A1 (Genentech, published 2022).

The labels stand for the following.
T1: PD-L2 extracellular domain (human, UniProt Q9BQ51 20-220)
T1 construct: extracellular domain; ECD construct; also called PDCD1LG2; programmed cell death 1 ligand 2
T1 sequence (looked up): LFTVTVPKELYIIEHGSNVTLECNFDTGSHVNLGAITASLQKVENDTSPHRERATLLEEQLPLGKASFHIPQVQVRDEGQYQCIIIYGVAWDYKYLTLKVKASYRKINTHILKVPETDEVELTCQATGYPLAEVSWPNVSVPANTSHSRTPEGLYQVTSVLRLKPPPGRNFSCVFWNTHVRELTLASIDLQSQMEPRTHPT

T2: AXL extracellular domain (human, UniProt P30530 26-451)
T2 construct: extracellular domain; Biotinylated ectodomain on streptavidin sensors in BLI; streptavidin tetramer in the cell assay; also called UFO; tyrosine-protein kinase receptor AXL
T2 sequence (looked up): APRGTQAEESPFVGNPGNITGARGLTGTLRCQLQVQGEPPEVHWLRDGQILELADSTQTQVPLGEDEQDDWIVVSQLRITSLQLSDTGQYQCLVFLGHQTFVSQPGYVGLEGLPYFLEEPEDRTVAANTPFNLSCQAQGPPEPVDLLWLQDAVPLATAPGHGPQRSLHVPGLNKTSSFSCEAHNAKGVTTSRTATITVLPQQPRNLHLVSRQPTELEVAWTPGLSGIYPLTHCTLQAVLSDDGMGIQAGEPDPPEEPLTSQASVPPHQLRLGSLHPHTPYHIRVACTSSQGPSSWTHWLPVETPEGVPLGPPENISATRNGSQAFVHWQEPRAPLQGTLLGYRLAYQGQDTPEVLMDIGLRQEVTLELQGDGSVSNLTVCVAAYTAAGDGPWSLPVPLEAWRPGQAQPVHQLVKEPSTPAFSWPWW

B1: CHL1 extracellular domain (receptor, human, UniProt O00533 25-1082, looked up)
chain: IEIPSSVQQVPTIIKQSKVQVAFPFDEYFQIECEAKGNPEPTFSWTKDGNPFYFTDHRIIPSNNSGTFRIPNEGHISHFQGKYRCFASNKLGIAMSEEIEFIVPSVPKFPKEKIDPLEVEEGDPIVLPCNPPKGLPPLHIYWMNIELEHIEQDERVYMSQKGDLYFANVEEKDSRNDYCCFAAFPRLRTIVQKMPMKLTVNSSNSIKQRKPKLLLPPTESGSESSITILKGEILLLECFAEGLPTPQVDWNKIGGDLPKGRETKENYGKTLKIENVSYQDKGNYRCTASNFLGTATHDFHVIVEEPPRWTKKPQSAVYSTGSNGILLCEAEGEPQPTIKWRVNGSPVDNHPFAGDVVFPREISFTNLQPNHTAVYQCEASNVHGTILANANIDVVDVRPLIQTKDGENYATVVGYSAFLHCEFFASPEAVVSWQKVEEVKPLEGRRYHIYENGTLQINRTTEEDAGSYSCWVENAIGKTAVTANLDIRNATKLRVSPKNPRIPKLHMLELHCESKCDSHLKHSLKLSWSKDGEAFEINGTEDGRIIIDGANLTISNVTLEDQGIYCCSAHTALDSAADITQVTVLDVPDPPENLHLSERQNRSVRLTWEAGADHNSNISEYIVEFEGNKEEPGRWEELTRVQGKKTTVILPLAPFVRYQFRVIAVNEVGRSQPSQPSDHHETPPAAPDRNPQNIRVQASQPKEMIIKWEPLKSMEQNGPGLEYRVTWKPQGAPVEWEEETVTNHTLRVMTPAVYAPYDVKVQAINQLGSGPDPQSVTLYSGEDYPDTAPVIHGVDVINSTLVKVTWSTVPKDRVHGRLKGYQINWWKTKSLLDGRTHPKEVNILRFSGQRNSGMVPSLDAFSEFHLTVLAYNSKGAGPESEPYIFQTPEGVPEQPTFLKVIKVDKDTATLSWGLPKKLNGNLTGYLLQYQIINDTYEIGELNDINITTPSKPSWHLSNLNATTKYKFYLRACTSQGCGKPITEESSTLGEGSKGIGKISGVNLTQKTHPIEVFEPGAEHIVRLMTKNWGDNDSIFQDVIETRGREYAGLYDDISTQGW
notes: extracellular domain; Soluble query (streptavidin tetramer) in cell assays; recombinant protein (R&D) in SPR; also called neural cell adhesion molecule L1-like protein; close homolog of L1
B2: TNFRS11A_DNA742118 (receptor, human, UniProt Q9Y6Q6 30-212, looked up)
extracellular domain construct of the screen: IAPPCTSEKHYEHLGRCCNKCEPGKYMSSKCTTTSDSVCLPCGPDEYLDSWNEEDKCLLHKVCDTGKALVAVVAGNSTTPRRCACTAGYHWSQDCECCRRNTECAPGLGAQHPLQLNKDTVCKPCLAGYFSDAFSSTDKCRPWTNCTFLGKRVEHHGTEKSDAVCSSSLPARKPPNEPHVYLP
notes: extracellular domain; also called TNFRSF11A
B3: IL1RL1 extracellular domain (receptor, human, UniProt Q01638 19-328, looked up)
chain: KFSKQSWGLENEALIVRCPRQGKPSYTVDWYYSQTNKSIPTQERNRVFASGQLLKFLPAAVADSGIYTCIVRSPTFNRTGYANVTIYKKQSDCNVPDYLMYSTVSGSEKNSKIYCPTIDLYNWTAPLEWFKNCQALQGSRYRAHKSFLVIDNVMTEDAGDYTCKFIHNENGANYSVTATRSFTVKDEQGFSLFPVIGAPAQNEIKEVEIGKNANLTCSACFGKGTQFLAAVLWQLNGTKITDFGEPRIQQEEGQNQSFSNGLACLDMVLRIADVKEEDLLLQYDCLALNLHGLRRHTVRLSRKNPIDHHS
notes: extracellular domain; Soluble analyte in BLI
B4: CNTN5 expressed on cells (receptor, human, UniProt O94779 19-1072, looked up)
chain: EYSKSLPGLSTSYAALLRIKKSSSSSLFGSKTRPRYSSPSLGTLSASSPSWLGAAQNYYSPINLYHSSDAFKQDESVDYGPVFVQEPDDIIFPTDSDEKKVALNCEVRGNPVPSYRWLRNGTEIDLESDYRYSLIDGTFIISNPSEAKDSGHYQCLATNTVGSILSREATLQFAYLGNFSGRTRSAVSVREGQGVVLMCSPPPHSPEIIYSWVFNEFPSFVAEDSRRFISQETGNLYISKVQTSDVGSYICLVKNTVTNARVLSPPTPLTLRNDGVMGEYEPKIEVHFPFTVTAAKGTTVKMECFALGNPVPTITWMKVNGYIPSKARLRKSQAVLEIPNVQLDDAGIYECRAENSRGKNSFRGQLQVYTYPHWVEKLNDTQLDSGSPLRWECKATGKPRPTYRWLKNGVPLSPQSRVEMVNGVLMIHNVNQSDAGMYQCLAENKYGAIYASAELKILASAPTFALNQLKKTIIVTKDQEVVIECKPQGSPKPTISWKKGDRAVRENKRIAILPDGSLRILNASKSDEGKYVCRGENVFGSAEIIASLSVKEPTRIELTPKRTELTVGESIVLNCKAIHDASLDVTFYWTLKGQPIDFEEEGGHFESIRAQASSADLMIRNILLMHAGRYGCRVQTTADSVSDEAELLVRGPPGPPGIVIVEEITESTATLSWSPAADNHSPISSYNLQARSPFSLGWQTVKTVPEIITGDMESAMAVDLNPWVEYEFRVVATNPIGTGDPSTPSRMIRTNEAVPKTAPTNVSGRSGRRHELVIAWEPVSEEFQNGEGFGYIVAFRPNGTRGWKEKMVTSSEASKFIYRDESVPPLTPFEVKVGVYNNKGDGPFSQIVVICSAEGEPSAAPTDVKATSVSVSEILVAWKHIKESLGRPQGFEVGYWKDMEQEDTAETVKTRGNESFVILTGLEGNTLYHFTVRAYNGAGYGPPSSEVSATTKKSPPSQAPSNLRWEQQGSQVSLGWEPVIPLANESEVVGYKVFYRQEGHSNSQVIETQKLQAVVPLPDAGVYIIEVRAYSEGGDGTASSQIRVPSYSGGKITS
notes: whole, on cells; also called contactin 5

One test deals with T3, L1CAM expressed on cells (human, UniProt P32004 20-1257).
T3 construct: whole, on cells; also called L1 cell adhesion molecule
T3 sequence (P32004 20-1257): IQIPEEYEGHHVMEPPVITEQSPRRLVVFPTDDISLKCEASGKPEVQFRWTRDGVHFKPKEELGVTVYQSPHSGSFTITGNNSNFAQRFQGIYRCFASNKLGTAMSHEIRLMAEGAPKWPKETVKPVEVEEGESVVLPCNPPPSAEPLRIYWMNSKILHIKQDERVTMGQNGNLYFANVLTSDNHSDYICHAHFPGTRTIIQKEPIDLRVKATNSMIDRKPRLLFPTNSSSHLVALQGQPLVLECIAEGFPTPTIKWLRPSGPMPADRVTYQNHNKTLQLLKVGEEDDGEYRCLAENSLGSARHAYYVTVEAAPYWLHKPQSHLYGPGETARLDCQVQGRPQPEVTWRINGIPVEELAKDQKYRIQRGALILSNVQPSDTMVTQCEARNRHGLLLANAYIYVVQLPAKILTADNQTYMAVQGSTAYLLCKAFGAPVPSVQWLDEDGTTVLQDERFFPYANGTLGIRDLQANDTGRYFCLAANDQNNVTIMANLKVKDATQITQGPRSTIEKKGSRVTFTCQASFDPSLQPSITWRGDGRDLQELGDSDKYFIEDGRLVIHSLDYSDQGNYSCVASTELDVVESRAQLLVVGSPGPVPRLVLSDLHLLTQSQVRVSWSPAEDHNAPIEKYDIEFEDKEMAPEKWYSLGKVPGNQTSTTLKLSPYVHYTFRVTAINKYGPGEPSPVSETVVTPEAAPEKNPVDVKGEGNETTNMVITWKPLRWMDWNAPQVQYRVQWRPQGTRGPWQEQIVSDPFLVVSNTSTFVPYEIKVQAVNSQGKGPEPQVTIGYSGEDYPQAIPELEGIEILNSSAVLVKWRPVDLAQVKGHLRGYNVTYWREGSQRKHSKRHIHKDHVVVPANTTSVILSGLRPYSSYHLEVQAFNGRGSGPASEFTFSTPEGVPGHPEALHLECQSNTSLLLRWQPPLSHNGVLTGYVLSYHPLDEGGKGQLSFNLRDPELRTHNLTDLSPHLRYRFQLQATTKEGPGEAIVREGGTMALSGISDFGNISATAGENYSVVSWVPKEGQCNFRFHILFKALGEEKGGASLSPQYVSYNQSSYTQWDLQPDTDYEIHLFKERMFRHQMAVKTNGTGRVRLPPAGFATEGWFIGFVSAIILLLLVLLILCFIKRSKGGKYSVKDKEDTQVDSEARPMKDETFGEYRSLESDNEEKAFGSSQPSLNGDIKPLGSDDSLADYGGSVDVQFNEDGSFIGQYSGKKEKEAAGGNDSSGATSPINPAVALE
In words: cell surface interaction assay: streptavidin-tetramerized biotinylated ECD on transfected cells, immunofluorescence. The text has this: FIG. 3H is a schematic showing the design of the cell surface interaction assay.

The target of test [1] is T1, PD-L2 extracellular domain. The test can be described thus: extracellular interaction screen, normalized intensity; labelled dot against the clone named on the axis; which is query and which prey is not given; colour of the predicted class lost.
Another test has as its target T2, AXL extracellular domain. In words: biolayer interferometry, biotinylated AXL ectodomain on streptavidin sensors, IL1RL1 ectodomain in solution. As for the experimental part: Interactions between AXL and the binding partners IL1RL1 and Gas6 were assayed by biolayer interferometry using an Octet Red system, as previously described (Husain et al., Mol Cell Proteomics, 18: 2310-2323, 2019). […] Data were analyzed using Forte Pall (Port Washington, N.Y.) software 9.0.

The target of test [2] is B1. The test can be described thus: cell surface interaction assay: streptavidin-tetramerized biotinylated ECD on transfected cells, immunofluorescence.

Regarding B1, the binding result with L1CAM expressed on cells is reported as “binds”. On to B2, for which the binding result in test [1] is on record as “binds”. In the case of B3, the binding result with AXL extracellular domain is given as “binds”. Regarding B4, the binding result in test [2] is listed as “binds”.
